Experimental data: patent publication US20240141372A1, “TRANSGENIC BANANA PLANTS HAVING INCREASED RESISTANCE TO FUSARIUM OXYSPORUM TROPICAL RACE 4 AND METHODS OF PRODUCING SAME” (Elo Life Systems, priority 2022, published 2024)
Read-outs that look alike come from different tables or passages of the source.

Assays:
Foc_TR4 = assay: In vitro spore germination and mycelial growth assay; format: cell-based, Fusarium oxysporum f.sp. cubense Tropical Race 4
[1] = test system: TR4 Fusarium oxysporum f sp. cubense (Foc); assay: ARSS greenhouse assay of acclimated tissue culture banana plants; format: in vivo; settings: transgenic banana lines per payload, FIG. 15
[2] = Foc_TR4 spores, purified Pichia-secreted protein, low ionic strength media, 25° C., A595 at 48 hours, read-out: IC50 (μM, CE fraction)

B1: Sm-AMP-D1: Sm-AMP-D1 anti-microbial peptide, tested as purified protein in vitro (protein)
chain: MAKTVLGIHVTFLTLLFAVILLNDVMYTPVEGKICERASGTWKGICIHSNDCNNQCVKWENAGSGSCHYQFPNYMCFCYFNC
- IC50 (Foc_TR4; Foc_TR4, in vitro fungal growth inhibition assay, read-out: IC50): 2.2 µM
- disease necrosis [1]: 27%

B2: Ma06_p33170.1: TLP antimicrobial protein, Musa acuminata (protein, listed as Musa acuminata)
chain: NFEIVNRCSYTVWAAAVPGGGRQLNQGQSWTINVKAGTTGGRIWGRTGCSFDGSGHGRCQTGDCGGLLACTAYGSPPNTLAEFALNQYSNQDYVDISLVDGFNVPMDFSPTSGGCRGMRCTADINKKCPTALKAPGGCNNPCTVFKTDQYCCNSGSCQPTEYSKFFKSNCPDAYSYPKDDPTSLVACPGGTNYRVVFCP
- IC50 (Foc_TR4; [2]): 0.052 ± 0.002 µM

B3: Ma07_p17800.1: TLP antimicrobial protein, Musa acuminata (protein, listed as Musa acuminata)
chain: ATFDIVNQCSFTVWAAAVPGGGRQLDPSQTWSINVNPGTTGGRVWARTDCSFDGSGSGSCQTGDCGGLLECQGYGTPPNTLAEFALNQFQNMDFIDISLVDGFNVPMDFSPTSGDCRGIRCSADINGQCPAELRAPGGCNNPCTVFKTDEYCCTSGSCGPTNYSMFFKNNCPDAYSYPKDDATSTFTCPGGTNYRVVFCP
- IC50 (Foc_TR4; [2]): > 25 µM

B4: Ma02_p17990.1: TLP antimicrobial protein, Musa acuminata (protein, listed as Musa acuminata)
chain: QYPAMTLTVVNNCPFTVWPAIQPNSGHDVLERGGFALPTVTHRSFPAPTQHWSGRIWARTGCTYANGRFSCATGDCGGRLECGGLGGAAPATLAQVTLHHGGQQDLSSYGVSLVDGFNVGMTVTPHEGKGRCPVVGCRENLLATCPDVLQLRAPAGGGQVVGCKSGCQAFGTDELCCRNMYNSPRTCRASSYSEFFKHACPATFTYAHDSPSLTHECAAPRELKVIFCH
- IC50 (Foc_TR4; [2]): 0.64 µM

B5: Ma02_p13180.1: TLP antimicrobial protein, Musa acuminata (protein, listed as Musa acuminata)
chain: ATFTLTNNCEYTVWPGVLSSAGTAPLSITGFALQQGESRSLDVPAAWSGRFWGRTLCAADASGKFSCGTGDCGSGAVECSGSGAAPPATLAEFTLDGSGGMDFYDVSLVDGYNLPMLVVPQGGSGGACSSTGCLVDLNGVCPSDLKVVLPTSEGGSESVACRSACETFGSPQYCCSGDYGNPNTCKPSSYSQFFKNACPRAYSYAYDDATSTFTCASANYLITFCPSTTSQKSSDSNPEAAGIPSSNNSTMIYSSEEVSHATPTVPRVAVALALAVVALCLGF
- IC50 (Foc_TR4; [2]): > 30 µM
